Experimental data from the supplement of paper PMC12764529.
± gives the half width of the 95% confidence interval.

Assays:
[1] = folding stability dG unfold (combined trypsin and chymotrypsin); higher = more stable
Procedure, shortened: (§1)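 Sequencing followed digestion of designed mini-proteins with trypsin and chymotrypsin, each at 11 concentrations in threefold dilutions together with a no-protease condition. The mini-proteins were under 80 residues, had no cysteine, sat in a PA-tagged cDNA display construct, and were kept only if AlphaFold2 dimer inter-PAE was above 15. From the counts, Bayesian fitting gave K50, and unfolding free energy was derived against a sequence-predicted unfolded-state K50 and a shared folded-state K50, per protease or combined.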

[2] = folding stability dG unfold from chymotrypsin proteolysis; higher = more stable
Procedure, shortened: as §1

| Sequence | folding stability dG unfold [1] | folding stability dG unfold [2] |
| --- | --- | --- |
| SAGGSMTIDDLKGMPVKEIAKRLGPGYEVNVDPNHGTLTLQHPNYQVTINVSPKDGYVKITEVTPHSAGGSA [r2_470_TrROS] | < -1 kcal/mol | -0.808 ± 0.32 kcal/mol |
| SAGGSRMRILNIDPESNRIRVRHPGKPFTFPVDNIEEVTIDPNDGYLTIKMKGETQTIPLDDPDAFSAGGSA [r2_48_TrROS] | 0.0825 ± 0.18 kcal/mol | 0.575 ± 0.16 kcal/mol |
| SAGGSSLDDPSLLPGVTLTVTLPETGEVLRVPSSEVVSGPLSEAAARVRAEVAAAHPGRPWEVRAESAGGSA [r2_392_JUSTAS] | < -1 kcal/mol | -0.728 ± 0.42 kcal/mol |
| SAGGSSLPPDVTLVEEEKVVETPDGTTIKVKTTTAVSAEGTVRRPVTETITYPEKPETIEKETEIDASAGGS [r16_563_JUSTAS] | 0.122 ± 0.33 kcal/mol | 0.405 ± 0.15 kcal/mol |
| SAGGSSPPTTTRTFAHPDGRTTELTVPTLPDGTPVVTTTTGGTTTTLSLSQLEKLPSSWTFTSTSSSAGGSA [r2_431_JUSTAS] | -0.971 ± 0.64 kcal/mol | -0.27 ± 0.24 kcal/mol |
| SAGGSSSTPRIKTSVSSSTTVTPLPGPTTLVTTTTTTTTTNPANGQQLSTTPTTSTTVVTPGTGAALSAGGS [r8_204_JUSTAS] | 0.314 ± 0.12 kcal/mol | 0.797 ± 0.053 kcal/mol |
| SAGGTIEEIKEALKKLPEGAVVEVTTENGEKLEFKSLEEIKKATITNENGEKIKITEVKVYPAKKEKSAGGS [r16_680_TrROS_Hall] | < -1 kcal/mol | 0.569 ± 0.16 kcal/mol |
| SAGKIVIEGEPEKLPEAIEEALKNNPDLKKVTIYYGDKSEEFEKDEEVKFFKPKKNKDGKPFMVLVVEDSAG [r5_130_TrMRF] | -0.00581 ± 0.37 kcal/mol | 0.756 ± 0.23 kcal/mol |
| SAGKTVKVTVEKEVTLENGNKVTVKVEKTVELKPPPPKKITLSPEEIEEIDKETGEIRNKKTNKVFKIKSAG [r5_807_TrROS_Hall] | < -1 kcal/mol | -0.0446 ± 0.37 kcal/mol |
| SAGMIVVPLPLSVEEAPAFARELLEAAEAAGLEVTIRVPDEAVAEAVREAAPPDAPVRIEPLEPGEPVESAG [r5_911_JUSTAS] | 0.128 ± 0.11 kcal/mol | 0.58 ± 0.054 kcal/mol |
| SAGMKIKVPFKAEVAPGAKPVKVEVWLGDGPPVATARLYYKVPGEEKTEVALIPIDPSTGKVTVFVKPGSAG [r5_136_TrMRF] | 0.0709 ± 0.32 kcal/mol | 0.592 ± 0.26 kcal/mol |
| SAGMTITIEDLDNGEKVTIEKNPEDPNMVQIEYPNGPEQTFPADEIAEELGLPPSLLQNGIRIKKIKISSAG [r5_156_TrROS] | < -1 kcal/mol | -0.603 ± 0.23 kcal/mol |
| SAGMTPDETVNILVSPDDSPEKVAEIIARHGPLTVTLPGSTREFTSEEEIRALYEQHPEDQVINVTVLSAGG [r19_95_JUSTAS] | -0.447 ± 0.28 kcal/mol | -0.0129 ± 0.21 kcal/mol |
| SAGPLVITVEETDGTVTITIYDAETGEKIAEFTFPKGAEVTIEDGYITIRNKETGETFVFKLPDGVKPSAGG [r19_4_TrROS_Hall] | > 6 kcal/mol | 6.34 ± 0.27 kcal/mol |
| SAGPPEPREIEIPVEGSWSDLRNQVKNVAEEAQPKGEPVQIKIEWGGRPRKYTLNDIDDVPPWMKVEIYSAG [r5_626_TrROS] | -0.449 ± 0.74 kcal/mol | -0.0343 ± 0.48 kcal/mol |
| SAGSHEAWFPIPELLNDPGLEDAWIRVTVHPTPNGNIDIDIEPEPVPKPKITPEEMQEQMEENNKQMKSAGG [r19_313_TrROS] | < -1 kcal/mol | -0.435 ± 0.064 kcal/mol |

| Sequence | folding stability dG unfold [1] | folding stability dG unfold [2] |
| --- | --- | --- |
| SAGSLPPDVTVPIPRRVRLSESDPALLEAARNGEPVYEELPGDVRVTVELRPLPPDELEVTERVYFPAGSAG [r5_223_JUSTAS] | -0.000299 ± 0.27 kcal/mol | 0.444 ± 0.12 kcal/mol |
| SAGSMTSFPLTLPGGEKISSISVTASPGTEYTTNATLSKDKSKTVTINFDIKPGGEKVVKNISVTTPEESAG [r14_705_JUSTAS] | -0.0181 ± 0.1 kcal/mol | 0.391 ± 0.2 kcal/mol |
| SAGSVTPLPNGEVVTLTTEKIGNEVYLVTKTTLPDGSVETETTPLKPTPPPPAVPVDVSNPYRAKLALASAG [r5_715_JUSTAS] | -0.814 ± 0.33 kcal/mol | -0.472 ± 0.35 kcal/mol |
| SAGTKTIMGRPDDLPEAIEEALDKGPDLKKVKIYWGGREREIPLGDKIKITEPMPNPNGPPFMMIEIEDSAG [r5_130_TrROS] | < -1 kcal/mol | -0.486 ± 0.38 kcal/mol |
| SAGTTTITVPASEASEEEVQALIDEIEAANPHLKVKEVKETVVPLPTPKPVRLRTIIINAELPLPPELLSAG [r5_835_JUSTAS] | -0.132 ± 0.47 kcal/mol | 0.447 ± 0.18 kcal/mol |
| SAGVEVTSTSVDYTLDSSSPSPLRSSASPVRSAPPVEERPVELVDPSGERRLVTLKEIDPEKGGRVLSGSAG [r5_735_JUSTAS] | 0.185 ± 0.24 kcal/mol | 0.229 ± 0.26 kcal/mol |
| SAGVRKIPIESADDLRDEIDKSPGPVIIRNKGNKKYHRIDPDDLNNFAKNGAPIEIMPPDEMPPEMRKQSAG [r5_677_TrROS] | -0.332 ± 0.17 kcal/mol | -0.0447 ± 0.14 kcal/mol |
| SAKKVKIKVVEIEKKEDYVLIKIKLEKNVKKGEKVKIIIKNKNGEKKEITIKNGYIYIKMKKKDIEIKISAG [r14_350_TrROS_Hall] | 3.93 ± 0.85 kcal/mol | 4.1 ± 0.29 kcal/mol |
| SAMEELAKKLKELFPNLEIVSIEEEEVEVEGKKRKVLRIKIKNKNGELLEIEFETPEDKEIAELLKKLLSAG [r14_143_TrROS_Hall] | > 6 kcal/mol | 5.53 ± 0.15 kcal/mol |
| SAMELVLEESTELAEDPTNPGVLVPRTTTRELPVEPPPVVVIGSEENAKKLKKKGEVEVPPSGIILIPLSAG [r14_582_JUSTAS] | 0.137 ± 0.24 kcal/mol | 0.517 ± 0.21 kcal/mol |
| SAMPITVTVKKTVTLPPPGPEHQKLLDPNGTVRTVTVEETETITVSPEEIEKVKEEAEAKGIEEVTVVDSAG [r14_509_JUSTAS] | 0.267 ± 0.15 kcal/mol | 0.732 ± 0.051 kcal/mol |
| SDKDEKVIPSTSTSTDPETGTVTTTSTNTTITKGKIISPTTVTTTYPTATTTTTSTTIVDPNGNITTINSSA [r9_1015_JUSTAS] | 0.299 ± 0.14 kcal/mol | 0.97 ± 0.042 kcal/mol |
| SDLQWEFPVKKPKDQAEQAVEKAKKEFPGFKEVDDIDVERNPDNYRIKMRIRDDKMPPEVADKLRKALQDSA [r9_195_TrROS] | < -1 kcal/mol | -0.454 ± 0.46 kcal/mol |
| SGGATVEAFRRAPPGVRARILVEERGEELIVRLEIEGDDRRDEAEFPDPEEALARLLAAGVPVVVDELPASA [r9_1021_TrMRF] | < -1 kcal/mol | -0.708 ± 0.76 kcal/mol |
| SKKRILIVTDEKDLSPEEAAKLLEELGIEEVKVVKSAEELKNLPPEVDEVIVVTPPPPVKVEFSPEELEKSA [r9_750_TrROS_Hall] | -0.626 ± 0.43 kcal/mol | -0.309 ± 0.069 kcal/mol |
| SMKVLEGEEEAKKLAEEEGVPVIPVPADVSLEEIKKRIKETPGFPPDTVVATVIPKEPGRTTVIVLPLGKSA [r9_314_JUSTAS] | 0.0112 ± 0.1 kcal/mol | 0.474 ± 0.035 kcal/mol |
